Laboratory results taken from article PMC11329236.

Molecular target: KIR3DL1-Fc (UniProt P43629)
Assay: SPR; Biacore T200; KIR3DL1-Fc coupled to a series S Protein A chip at ~1000 RU; soluble monomers injected at 0-193 uM (wild type) or 0-234 uM (V97S); contact 300 s, dissociation 700 s; 25 C; HBS-EP+ buffer; 1:1 binding model

Chain of UniProt P43629 (P43629 22-320): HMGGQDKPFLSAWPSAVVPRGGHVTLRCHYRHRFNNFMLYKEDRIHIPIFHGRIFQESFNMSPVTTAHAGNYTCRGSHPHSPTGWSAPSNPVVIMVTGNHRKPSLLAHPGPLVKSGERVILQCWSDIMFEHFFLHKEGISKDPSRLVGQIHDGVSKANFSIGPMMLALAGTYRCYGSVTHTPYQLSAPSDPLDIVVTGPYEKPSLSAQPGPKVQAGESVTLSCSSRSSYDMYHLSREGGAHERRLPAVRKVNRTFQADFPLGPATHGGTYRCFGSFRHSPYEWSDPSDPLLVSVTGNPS

“soluble HLA-B*5701 V97S mutant monomer in complex with the TW10 peptide (from UniProt P61769 21-119) (peptide-MHC)” showed a Kd of 185 µM.
